Assay [1] deals with EED (amino acids 40-441) (human) (UniProt O75530). Description: fluorescence polarisation.
Assay [2] deals with 5-carboxyfluorescein (5-FAM, single isomer) labelled JARID2-K116me3 peptide. The experiment in a line: fluorescence polarisation.

Here are results for seven substances from article doi:10.1101/2020.05.28.122556.

Chain of EED (amino acids 40-441) (human) (O75530 40-441): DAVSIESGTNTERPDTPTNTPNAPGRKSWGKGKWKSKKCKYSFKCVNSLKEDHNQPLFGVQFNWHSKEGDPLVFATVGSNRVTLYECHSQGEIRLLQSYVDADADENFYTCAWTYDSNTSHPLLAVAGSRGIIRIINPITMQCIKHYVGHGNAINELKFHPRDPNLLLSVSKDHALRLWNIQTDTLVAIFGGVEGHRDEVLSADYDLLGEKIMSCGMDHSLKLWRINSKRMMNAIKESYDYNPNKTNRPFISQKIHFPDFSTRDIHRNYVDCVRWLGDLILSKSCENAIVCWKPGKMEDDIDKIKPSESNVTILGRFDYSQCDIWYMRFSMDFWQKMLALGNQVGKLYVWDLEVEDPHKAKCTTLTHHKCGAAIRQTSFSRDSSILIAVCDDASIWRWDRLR
Chain of EED (amino acids 40-441) (O75530 40-441): as above

Broadly, the Kd is the free concentration of one partner at which half of the binding sites on the other are occupied at equilibrium, for simple one-to-one binding. For H3K27me3 peptide, in assay [1], the Kd was 41.3 µM. Consider PALI1-K1214me3 peptide, for which, in assay [1], the fold lower affinity than PALI1-K1219me3 and PALI1-K1241me3 was 4 fold. Consider “EED (amino acids 40-441) (from UniProt O75530-1 40-441) (domain or fragment)”, for which the Kd in assay [2] stood at 8.07 µM. On to PALI1-K1241me3 peptide, for which the Kd in assay [1] came out at 8.47 µM. As to PALI1-K1241me2 peptide, the Kd in assay [1] was determined as 18.8 µM. On to PALI1-K1219me3 peptide, for which, in assay [1], the Kd is 7.53 µM.

PALI1-K1241me1 peptide had a Kd in assay [1] of 240 µM.
